In publication doi:10.1101/2023.08.17.553727 one finds binding ability to the C subunit relative to YFP-B’β (fold of YFP-B’β) data, which are given here for one substance.

The target in this assay is B’β-GFP (Arabidopsis thaliana) (UniProt O04376). The assay can be described thus: co-IP.
Sequence of UniProt O04376 (O04376 whole entry): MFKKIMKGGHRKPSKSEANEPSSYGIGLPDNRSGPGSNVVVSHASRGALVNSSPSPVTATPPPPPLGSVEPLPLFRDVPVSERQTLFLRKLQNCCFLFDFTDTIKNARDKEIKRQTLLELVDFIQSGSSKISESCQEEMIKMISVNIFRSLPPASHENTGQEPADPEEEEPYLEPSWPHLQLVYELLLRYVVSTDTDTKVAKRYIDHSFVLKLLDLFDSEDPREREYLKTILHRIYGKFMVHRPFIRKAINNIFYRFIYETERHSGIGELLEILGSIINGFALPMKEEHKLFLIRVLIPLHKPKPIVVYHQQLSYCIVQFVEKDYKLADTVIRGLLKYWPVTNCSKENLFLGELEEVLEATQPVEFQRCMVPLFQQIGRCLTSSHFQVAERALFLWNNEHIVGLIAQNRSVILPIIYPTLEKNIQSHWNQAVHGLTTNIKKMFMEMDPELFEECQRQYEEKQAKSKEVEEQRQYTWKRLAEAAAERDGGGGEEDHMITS

As to “PP2A C subunit (from UniProt Q07099 1-306) (enzyme)”, the binding ability to the C subunit relative to YFP-B’β (fold of YFP-B’β) was found to be 0.33.
